Paper PMC9504884, “Functional Interactions of Kluyveromyces lactis Telomerase Reverse Transcriptase with the Three-Way Junction and the Template Domains of Telomerase RNA”

Key:
Assay in all cases: EMSA; 1 nM RNA, tRNA competitor; 25 mM Tris-HCl pH 7.5, 50 mM KCl, 1 mM MgCl2, 1 mM DTT, 10% glycerol, 0.1% Triton, 0.5 mg/mL BSA, 1.7 ng/uL yeast tRNA, 1 nM RNA probe; 15 min on ice then 10 min room temperature; gel at 6 C
[1] = target: T1, klEst2 full-length (TERT) (Kluyveromyces lactis, UniProt Q6CSS0 1-861); conditions: protein: recombinant; tags: expressed in E. coli; His-SUMO tag described for the TRBD constructs, tag of full-length not clearly stated; label: 5'-32P when probe; three-way junction
T1 sequence: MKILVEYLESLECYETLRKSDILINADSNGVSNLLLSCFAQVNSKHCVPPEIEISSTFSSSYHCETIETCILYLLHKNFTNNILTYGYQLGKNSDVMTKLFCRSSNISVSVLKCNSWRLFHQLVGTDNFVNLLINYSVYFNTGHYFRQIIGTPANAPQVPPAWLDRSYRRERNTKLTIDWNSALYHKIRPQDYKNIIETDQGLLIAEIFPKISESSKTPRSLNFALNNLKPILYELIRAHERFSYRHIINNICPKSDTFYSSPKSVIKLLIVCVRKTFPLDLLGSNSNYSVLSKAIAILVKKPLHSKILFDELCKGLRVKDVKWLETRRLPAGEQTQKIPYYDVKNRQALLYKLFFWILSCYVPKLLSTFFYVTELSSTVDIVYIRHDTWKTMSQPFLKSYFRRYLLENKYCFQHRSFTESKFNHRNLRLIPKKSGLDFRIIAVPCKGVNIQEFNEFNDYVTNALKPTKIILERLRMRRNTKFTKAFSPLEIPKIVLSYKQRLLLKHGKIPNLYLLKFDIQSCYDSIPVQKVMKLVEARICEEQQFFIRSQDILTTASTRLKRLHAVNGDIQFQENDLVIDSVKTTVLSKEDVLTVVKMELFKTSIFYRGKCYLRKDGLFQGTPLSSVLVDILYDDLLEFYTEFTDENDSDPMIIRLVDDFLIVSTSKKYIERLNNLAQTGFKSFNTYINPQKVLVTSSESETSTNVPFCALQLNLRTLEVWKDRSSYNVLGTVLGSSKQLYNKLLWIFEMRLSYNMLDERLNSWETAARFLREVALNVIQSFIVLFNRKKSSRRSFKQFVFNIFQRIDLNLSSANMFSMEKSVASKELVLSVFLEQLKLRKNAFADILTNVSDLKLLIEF

klTRBD klEst2 171-404 = target: T2, klTRBD klEst2 171-404 (Kluyveromyces lactis, UniProt Q6CSS0 171-404); conditions: protein: recombinant; tags: N-terminal His-SUMO, TEV-cleaved; label: 5'-32P when probe; three-way junction
T2 sequence: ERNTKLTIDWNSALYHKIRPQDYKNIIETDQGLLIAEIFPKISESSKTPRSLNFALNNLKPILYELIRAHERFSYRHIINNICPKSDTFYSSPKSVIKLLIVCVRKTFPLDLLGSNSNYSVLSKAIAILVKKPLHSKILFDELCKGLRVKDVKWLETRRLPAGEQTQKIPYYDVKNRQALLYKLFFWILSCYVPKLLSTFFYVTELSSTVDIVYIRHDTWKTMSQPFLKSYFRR

klTRBD klEst2 171-422 = target: T3, klTRBD klEst2 171-422 (Kluyveromyces lactis, UniProt Q6CSS0 171-422); conditions: protein: recombinant; tags: N-terminal His-SUMO, TEV-cleaved; label: 5'-32P when probe; three-way junction
T3 sequence: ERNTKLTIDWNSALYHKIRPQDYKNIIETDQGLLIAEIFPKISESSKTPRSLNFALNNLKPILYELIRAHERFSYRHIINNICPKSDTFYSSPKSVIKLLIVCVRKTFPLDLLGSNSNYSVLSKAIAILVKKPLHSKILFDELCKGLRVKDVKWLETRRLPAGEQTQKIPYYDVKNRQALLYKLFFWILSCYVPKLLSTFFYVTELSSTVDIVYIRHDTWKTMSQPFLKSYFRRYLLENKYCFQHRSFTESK

B1: minTWJ (structured_RNA)
RNA: GGGUUGUCCUAUGGUGGAUCUUGAAAAGACCCUCGGAAGACAGGGCCACAUCGACGAUCAAUAUUUUGCCGUGAGGCUUAUAUGUCACCAUGGCAUGCAGCCC
Question: Does B1 bind [1]?
Answer: Result: binds

Question: Does B1 bind (klTRBD klEst2 171-404)?
Answer: Result: no binding

Question: Does B1 bind (klTRBD klEst2 171-422)?
Answer: Result: no binding
